{"source": "patent US20220331401A1", "about": "(Stanford University, published 2022)", "key": {"[1]": {"target": "T1, recombinant human CLCF1 (cardiotrophin-like cytokine factor 1), residues 28-225 (human, UniProt Q9UBD9 28-225)", "T1 construct": "Only one recombinant CLCF1 preparation is described; also called CLCF1-His; not shown: His tag (named CLCF1-His, detected with anti-HIS antibody)", "T1 sequence": "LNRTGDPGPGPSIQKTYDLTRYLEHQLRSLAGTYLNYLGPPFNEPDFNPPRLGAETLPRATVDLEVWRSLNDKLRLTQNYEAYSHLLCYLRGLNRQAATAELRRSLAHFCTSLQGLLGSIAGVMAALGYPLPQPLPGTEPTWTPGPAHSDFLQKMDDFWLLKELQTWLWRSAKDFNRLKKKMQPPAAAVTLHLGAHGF", "test": "yeast display, flow cytometry titration with CLCF1", "excerpt": "Directed evolution was used to engineer a soluble CNTFR variant with stronger affinity for CLCF1 and lack of binding to gp130 and LIFR. It was hypothesized that such a molecule would act as an efficient ligand trap and antagonize CLCF1-mediated oncogenic signaling. To develop a high-affinity receptor decoy, DNA encoding the extracellular domain of CNTFR was subjected to random mutagenesis via error-prone PCR. […] The library was screened to enrich for variants with increased CLCF1 binding using flow cytometry. After 3 rounds of screening, T174P and S237F appeared as consensus mutations, with substantial diversity observed at other amino acid positions. To probe additive effects of these mutations, 20 randomly selected distinct clones from the sorted populations were shuffled using the Staggered Extension Process (StEP) method to create a second library. A combination of equilibrium binding and kinetic off-rate screens were used to sort this library to impose increased screening stringency (FIG. 2, panel C). […]\nYeast displaying the CNTFR constructs were incubated with varying concentrations of CLCF1 for 12 h at room temperature to reach equilibrium binding. […] Then samples were washed and analyzed by flow cytometry using BD Accuri flow cytometer. Samples were analyzed on BD Bioscience software, and data were analyzed using FlowJo software (Treestar Inc)."}, "[2]": {"target": "T2, recombinant human CLCF1 (cardiotrophin-like cytokine factor 1), residues 28-225 (UniProt Q9UBD9 28-225)", "T2 chain": "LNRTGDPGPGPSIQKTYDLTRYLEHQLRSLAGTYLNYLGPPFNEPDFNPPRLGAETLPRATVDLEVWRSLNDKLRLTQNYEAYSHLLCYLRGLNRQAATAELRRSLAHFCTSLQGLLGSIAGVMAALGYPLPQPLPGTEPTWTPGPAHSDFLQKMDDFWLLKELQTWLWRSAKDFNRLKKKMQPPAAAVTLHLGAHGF", "test": "yeast display flow cytometry; apparent Kd, ±3"}, "[3]": {"target": "T2, recombinant human CLCF1 …", "test": "yeast display flow cytometry; apparent Kd, ±0.003"}, "[4]": {"target": "T3, recombinantly produced CNTF (ciliary neurotrophic factor) (Homo sapiens (Human), UniProt P26441 1-200)", "T3 sequence": "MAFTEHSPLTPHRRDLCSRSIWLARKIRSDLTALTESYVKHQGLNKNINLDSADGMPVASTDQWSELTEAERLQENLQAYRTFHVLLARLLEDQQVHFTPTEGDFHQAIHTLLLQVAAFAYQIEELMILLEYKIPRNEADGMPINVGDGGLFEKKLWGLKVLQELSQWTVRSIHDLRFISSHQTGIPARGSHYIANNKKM", "test": "microtiter plate-based binding assay"}, "mouse CLCF1 [5]": {"target": "T4, mouse CLCF1 (mouse, UniProt Q9QZM3 28-225)", "T4 sequence (looked up)": "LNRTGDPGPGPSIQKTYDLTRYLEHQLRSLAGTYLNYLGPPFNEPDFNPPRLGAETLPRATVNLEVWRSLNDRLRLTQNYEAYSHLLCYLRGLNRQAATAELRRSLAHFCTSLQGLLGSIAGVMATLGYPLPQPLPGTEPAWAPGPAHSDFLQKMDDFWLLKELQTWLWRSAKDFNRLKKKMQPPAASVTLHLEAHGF", "test": "microtiter plate-based binding assay"}, "mouse CLCF1 [6]": {"target": "T5, mouse CLCF1 (mouse, UniProt Q9QZM3 28-225)", "T5 chain": "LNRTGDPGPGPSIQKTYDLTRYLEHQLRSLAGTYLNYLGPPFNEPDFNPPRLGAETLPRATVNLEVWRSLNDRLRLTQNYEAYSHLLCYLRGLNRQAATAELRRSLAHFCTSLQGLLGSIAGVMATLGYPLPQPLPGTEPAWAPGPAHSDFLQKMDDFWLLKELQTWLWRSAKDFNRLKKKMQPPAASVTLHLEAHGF", "test": "ELISA; ±7"}, "[7]": {"target": "T2, recombinant human CLCF1 …", "test": "ELISA; ±4"}, "[8]": {"target": "T1, recombinant human CLCF1 …", "test": "microtiter plate-based assay (capture of the CNTFR construct, detection with anti-CLCF1)"}, "[9]": {"target": "T2, recombinant human CLCF1 …", "test": "yeast display flow cytometry; apparent Kd, ±0.006"}, "[10]": {"target": "T2, recombinant human CLCF1 …", "test": "yeast display flow cytometry; apparent Kd, ±5"}, "[11]": {"target": "T2, recombinant human CLCF1 …", "test": "yeast display flow cytometry; apparent Kd, ±0.07"}, "[12]": {"target": "T2, recombinant human CLCF1 …", "test": "yeast display flow cytometry; apparent Kd, ±0.4"}, "[13]": {"target": "T2, recombinant human CLCF1 …", "test": "yeast display flow cytometry; apparent Kd, ±0.02"}, "[14]": {"target": "T2, recombinant human CLCF1 …", "test": "ELISA; ±6"}}, "data": [{"binder": "yeast-displayed CNTFR variant 4 (R110Q, T174P, S237F, I287F) (receptor, not shown: Aga2p fusion partner and linkers of the pCTCON2 yeast display plasmid; c-Myc tag used to detect expression) AVVYAQRHSPQEAPHVQYERLGSDVTLPCGTANWDAAVTWRVNGTDLAPDLLNGSQLVLHGLELGHSGLYACFHRDSWHLRHQVLLHVGLPPQEPVLSCRSNTYPKGFYCSWHLPTPTYIPNTFNVTVLHGSKIMVCEKDPALKNRCHIRYMHLFSPIKYKVSISVSNALGHNATAITFDEFTIVKPDPPENVVARPVPSNPRRLEVTWQTPSTWPDPEFFPLKFFLRYRPLILDQWQHVELSDGTAHTITDAYAGKEYIIQVAAKDNEFGTWSDWSVAAHATPWTEEPRHLTTEAQAAETTTSTTSSLAPPPTTKICDPGELGS", "values": [{"measurement": "Kd", "setting": "[1]", "value": 0.02, "unit": "nM"}, {"measurement": "Kd", "setting": "[2]", "value": 0.019, "unit": "nM"}, {"measurement": "Kd", "setting": "[3]", "value": 0.019, "unit": "nM"}]}, {"binder": "soluble eCNTFR fused to an antibody Fc domain (Fc fusion, The tie is the identical set of eight mutations plus an Fc domain; also called eCNTFR-Fc) QRHSPQEAPHVQYERLGSDVTLPCGTANWDAAVTWRVNGTDLAPDLLNGSQLVLHGLELGHSGLYACFHRDSWHLRHQVLLHVGLPPQEPVLSCRSNTYPKGFYCSWHLPTPTYIPNTFNVTVLHGSKIMVCEKDPALKNRCHIRYMHLFSPIKHNVSISVSNALGHNATAITFDEFTIVKPDPPENVVARPVPSNPRRLEVTWQTPSTWPDPEFFPLKFFLRYRPLILDQWQHVELSDGTAHTIAAAYAGKEYIIQVAAKDNEFGTWSDWSVAAHATPWTEEPRHLTTEAQAAETTTSTTSSLAPPPTTKICDPGELGSRRLEPRGPTIKPCPPCKCPAPNLLGGPSVFIFPPKIKDVLMISLSPIVTCVVVDVSEDDPDVQISWFVNNVEVHTAQTQTHREDYNSTLRVVSALPIQHQDWMSGKEFKCKVNNKDLPAPIERTISKPKGSVRAPQVYVLPPPEEEMTKKQVTLTCMVTDFMPEDIYVEWTNNGKTELNYKNTEPVLDSDGSYFMYSKLRVEKKNWVERNSYSCSVVHEGLHNHHTTKSFSRTPGK", "values": [{"measurement": "binding result", "setting": "[4]", "value": "no binding"}, {"measurement": "binding result", "setting": "mouse CLCF1 [5]", "value": "binds"}, {"measurement": "Kd", "setting": "mouse CLCF1 [6]", "value": 0.131, "unit": "nM"}, {"measurement": "Kd", "setting": "[7]", "value": 0.063, "unit": "nM"}, {"measurement": "binding result", "setting": "[8]", "value": "binds"}]}, {"binder": "Variant 3 (T174P, S237F, I287F) (protein) MAAPVPWACCAVLAAAAAVVYAQRHSPQEAPHVQYERLGSDVTLPCGTANWDAAVTWRVNGTDLAPDLLNGSQLVLHGLELGHSGLYACFHRDSWHLRHQVLLHVGLPPREPVLSCRSNTYPKGFYCSWHLPTPTYIPNTFNVTVLHGSKIMVCEKDPALKNRCHIRYMHLFSPIKYKVSISVSNALGHNATAITFDEFTIVKPDPPENVVARPVPSNPRRLEVTWQTPSTWPDPEFFPLKFFLRYRPLILDQWQHVELSDGTAHTITDAYAGKEYIIQVAAKDNEFGTWSDWSVAAHATPWTEEPRHLTTEAQAAETTTSTTSSLAPPPTTKICDPGELGSGGGPSAPFLVSVPITLALAAAAATASSLLI", "values": [{"measurement": "Kd", "setting": "[9]", "value": 0.049, "unit": "nM"}]}, {"binder": "Neg sort (R110Q, T174P, Y177H, K178N, S237F, I287F) (protein) MAAPVPWACCAVLAAAAAVVYAQRHSPQEAPHVQYERLGSDVTLPCGTANWDAAVTWRVNGTDLAPDLLNGSQLVLHGLELGHSGLYACFHRDSWHLRHQVLLHVGLPPQEPVLSCRSNTYPKGFYCSWHLPTPTYIPNTFNVTVLHGSKIMVCEKDPALKNRCHIRYMHLFSPIKHNVSISVSNALGHNATAITFDEFTIVKPDPPENVVARPVPSNPRRLEVTWQTPSTWPDPEFFPLKFFLRYRPLILDQWQHVELSDGTAHTITDAYAGKEYIIQVAAKDNEFGTWSDWSVAAHATPWTEEPRHLTTEAQAAETTTSTTSSLAPPPTTKICDPGELGSGGGPSAPFLVSVPITLALAAAAATASSLLI", "values": [{"measurement": "Kd", "setting": "[10]", "value": 0.014, "unit": "nM"}]}, {"binder": "Variant 5 (S237F, I287F) (protein) MAAPVPWACCAVLAAAAAVVYAQRHSPQEAPHVQYERLGSDVTLPCGTANWDAAVTWRVNGTDLAPDLLNGSQLVLHGLELGHSGLYACFHRDSWHLRHQVLLHVGLPPREPVLSCRSNTYPKGFYCSWHLPTPTYIPNTFNVTVLHGSKIMVCEKDPALKNRCHIRYMHLFSTIKYKVSISVSNALGHNATAITFDEFTIVKPDPPENVVARPVPSNPRRLEVTWQTPSTWPDPEFFPLKFFLRYRPLILDQWQHVELSDGTAHTITDAYAGKEYIIQVAAKDNEFGTWSDWSVAAHATPWTEEPRHLTTEAQAAETTTSTTSSLAPPPTTKICDPGELGSGGGPSAPFLVSVPITLALAAAAATASSLLI", "values": [{"measurement": "Kd", "setting": "[11]", "value": 0.04, "unit": "nM"}]}, {"binder": "Variant 1 (S237F) (protein) MAAPVPWACCAVLAAAAAVVYAQRHSPQEAPHVQYERLGSDVTLPCGTANWDAAVTWRVNGTDLAPDLLNGSQLVLHGLELGHSGLYACFHRDSWHLRHQVLLHVGLPPREPVLSCRSNTYPKGFYCSWHLPTPTYIPNTFNVTVLHGSKIMVCEKDPALKNRCHIRYMHLFSTIKYKVSISVSNALGHNATAITFDEFTIVKPDPPENVVARPVPSNPRRLEVTWQTPSTWPDPEFFPLKFFLRYRPLILDQWQHVELSDGTAHTITDAYAGKEYIIQVAAKDNEIGTWSDWSVAAHATPWTEEPRHLTTEAQAAETTTSTTSSLAPPPTTKICDPGELGSGGGPSAPFLVSVPITLALAAAAATASSLLI", "values": [{"measurement": "Kd", "setting": "[12]", "value": 41, "unit": "nM"}]}, {"binder": "Variant 2 (T174P, S237F) (protein) MAAPVPWACCAVLAAAAAVVYAQRHSPQEAPHVQYERLGSDVTLPCGTANWDAAVTWRVNGTDLAPDLLNGSQLVLHGLELGHSGLYACFHRDSWHLRHQVLLHVGLPPREPVLSCRSNTYPKGFYCSWHLPTPTYIPNTFNVTVLHGSKIMVCEKDPALKNRCHIRYMHLFSPIKYKVSISVSNALGHNATAITFDEFTIVKPDPPENVVARPVPSNPRRLEVTWQTPSTWPDPEFFPLKFFLRYRPLILDQWQHVELSDGTAHTITDAYAGKEYIIQVAAKDNEIGTWSDWSVAAHATPWTEEPRHLTTEAQAAETTTSTTSSLAPPPTTKICDPGELGSGGGPSAPFLVSVPITLALAAAAATASSLLI", "values": [{"measurement": "Kd", "setting": "[13]", "value": 0.89, "unit": "nM"}]}, {"binder": "soluble eCNTFR with a C-terminal hexahistidine tag (receptor, also called eCNTFR-His; not shown: C-terminal hexahistidine tag) QRHSPQEAPHVQYERLGSDVTLPCGTANWDAAVTWRVNGTDLAPDLLNGSQLVLHGLELGHSGLYACFHRDSWHLRHQVLLHVGLPPQEPVLSCRSNTYPKGFYCSWHLPTPTYIPNTFNVTVLHGSKIMVCEKDPALKNRCHIRYMHLFSPIKHNVSISVSNALGHNATAITFDEFTIVKPDPPENVVARPVPSNPRRLEVTWQTPSTWPDPEFFPLKFFLRYRPLILDQWQHVELSDGTAHTIAAAYAGKEYIIQVAAKDNEFGTWSDWSVAAHATPWTEEPRHLTTEAQAAETTTSTTSSLAPPPTTKICDPGELGS", "values": [{"measurement": "Kd", "setting": "[14]", "value": 0.075, "unit": "nM"}, {"measurement": "binding result", "setting": "[8]", "value": "binds"}]}]}
